Measured values reported in publication PMC9554411.

Molecular target: MERS-CoV spike glycoprotein ectodomain (EMC strain, spike residues 1-1290), trimer (MERS-CoV (EMC strain)) (UniProt K0BRG7)
Assay: cryo-EM structure

MERS-CoV spike glycoprotein ectodomain (EMC strain, spike residues 1-1290), trimer (from UniProt K0BRG7 18-1290) (domain or fragment)
stoichiometry N: 3
